The values below come from publication PMC2716513.

For assay [1], the target named is ADAMTS13 (wild-type recombinant ADAMTS13 with a carboxy-terminal V5 tag) (UniProt Q76LX8).
Assay [2] has the same target. The source holds these as a separate data set.
The next assay deals with ADAMTS13 P475S mutant (UniProt Q76LX8).

Where only a bound is given, the exact number is not on record here.

Regarding “von Willebrand Factor (VWF) (from UniProt P04275 764-2813) (natural protein)”, the reactivity of the mAb Wh2-11-1 to intracellular ADAMTS13 (flow cytometry, permeabilized HEK293 cells) after incubation with VWF at 37°C, fold increase in assay [1] is above 10 fold. Also, the fluorescence intensity of the mAb Wh-2-11-1 on wild-type ADAMTS13 (flow cytometry) on addition of VWF, fold increase (data not given) in assay [2] is 3.5 fold. This substance also came in with a fluorescence intensity of the mAb Wh-2-11-1 on the P475S mutant ADAMTS13 (flow cytometry) on addition of VWF, fold increase (data not given) with ADAMTS13 P475S mutant of 1.9 fold.
